One block for each substance: values may come before it.
Molecular target: sulfite reductase tagged with a C-terminal GFP S11 (SEQ ID NO: 16)
Experiment: cell-based or functional assay

Substance: Split-YFP S1-10 (T203Y) (from UniProt P42212 1-214)
- Green Fluorescence (488/510) (clone A6): 7.74
- Green Fluorescence (488/510) (clone A8): 8.54
- Green Fluorescence (488/510) (clone B3): 13.9
- Green Fluorescence (488/510) (clone B4): 16
- Green Fluorescence (488/510) (clone B6): 8.08
- Green Fluorescence (488/510) (clone B10): 16.1
- Green Fluorescence (488/510) (clone C9): 17.5
- Green Fluorescence (488/510) (clone D1): 16.4
- Green Fluorescence (488/510) (clone D2): 18.5
- Green Fluorescence (488/510) (clone D5): 17.8
- Green Fluorescence (488/510) (clone D7): 17.4
- Green Fluorescence (488/510) (clone D9): 21
- Green Fluorescence (488/510) (clone D10): 18.2
- Green Fluorescence (488/510) (clone D11): 17.1
- Green Fluorescence (488/510) (clone E1): 12.3
- Green Fluorescence (488/510) (clone E3): 17.9
- Green Fluorescence (488/510) (clone E4): 17.4
- Green Fluorescence (488/510) (clone E6): 15.4
- Green Fluorescence (488/510) (clone E8): 22.9
- Green Fluorescence (488/510) (clone E9): 23.9
- Green Fluorescence (488/510) (clone F1): 15.8
- Green Fluorescence (488/510) (clone F6): 11.5
- Green Fluorescence (488/510) (clone F7): 17.7
- Green Fluorescence (488/510) (clone F9): 21.4
- Green Fluorescence (488/510) (clone F10): 8.11
- Green Fluorescence (488/510) (clone F11): 19
- Green Fluorescence (488/510) (clone G9): 18.6
- Green Fluorescence (488/510) (clone G10): 17
- Green Fluorescence (488/510) (clone H4): 9.39
- Green Fluorescence (488/510) (clone H5): 8.77
- Green Fluorescence (488/510) (clone H9): 12.4
- Green Fluorescence (488/510) (clone H10): 13.1
- Ratio Yellow/Green Fluorescence (clone A6): 18.9
- Ratio Yellow/Green Fluorescence (clone A8): 17.5
- Ratio Yellow/Green Fluorescence (clone B3): 10.5
- Ratio Yellow/Green Fluorescence (clone B4): 9.71
- Ratio Yellow/Green Fluorescence (clone B6): 13.7
- Ratio Yellow/Green Fluorescence (clone B10): 10.2
- Ratio Yellow/Green Fluorescence (clone C9): 9.2
- Ratio Yellow/Green Fluorescence (clone D1): 9.41
- Ratio Yellow/Green Fluorescence (clone D2): 8.3
- Ratio Yellow/Green Fluorescence (clone D5): 8.66
- Ratio Yellow/Green Fluorescence (clone D7): 8.97
- Ratio Yellow/Green Fluorescence (clone D9): 7.45
- Ratio Yellow/Green Fluorescence (clone D10): 7.74
- Ratio Yellow/Green Fluorescence (clone D11): 8.31
- Ratio Yellow/Green Fluorescence (clone E1): 11.3
- Ratio Yellow/Green Fluorescence (clone E3): 8.45
- Ratio Yellow/Green Fluorescence (clone E4): 8.79
- Ratio Yellow/Green Fluorescence (clone E6): 10.1
- Ratio Yellow/Green Fluorescence (clone E8): 7.21
- Ratio Yellow/Green Fluorescence (clone E9): 6.93
- Ratio Yellow/Green Fluorescence (clone F1): 10.1
- Ratio Yellow/Green Fluorescence (clone F6): 12.6
- Ratio Yellow/Green Fluorescence (clone F7): 9.1
- Ratio Yellow/Green Fluorescence (clone F9): 7.71
- Ratio Yellow/Green Fluorescence (clone F10): 14.3
- Ratio Yellow/Green Fluorescence (clone F11): 8.74
- Ratio Yellow/Green Fluorescence (clone G9): 9.14
- Ratio Yellow/Green Fluorescence (clone G10): 9.91
- Ratio Yellow/Green Fluorescence (clone H4): 16.6
- Ratio Yellow/Green Fluorescence (clone H5): 18.4
- Ratio Yellow/Green Fluorescence (clone H9): 13.5
- Ratio Yellow/Green Fluorescence (clone H10): 13.3
- Yellow Fluorescence (510/532) (clone A6): 146
- Yellow Fluorescence (510/532) (clone A8): 150
- Yellow Fluorescence (510/532) (clone B3): 146
- Yellow Fluorescence (510/532) (clone B4): 155
- Yellow Fluorescence (510/532) (clone B6): 111
- Yellow Fluorescence (510/532) (clone B10): 165
- Yellow Fluorescence (510/532) (clone C9): 161
- Yellow Fluorescence (510/532) (clone D1): 154
- Yellow Fluorescence (510/532) (clone D2): 154
- Yellow Fluorescence (510/532) (clone D5): 154
- Yellow Fluorescence (510/532) (clone D7): 156
- Yellow Fluorescence (510/532) (clone D9): 156
- Yellow Fluorescence (510/532) (clone D10): 141
- Yellow Fluorescence (510/532) (clone D11): 143
- Yellow Fluorescence (510/532) (clone E1): 139
- Yellow Fluorescence (510/532) (clone E3): 151
- Yellow Fluorescence (510/532) (clone E4): 153
- Yellow Fluorescence (510/532) (clone E6): 155
- Yellow Fluorescence (510/532) (clone E8): 165
- Yellow Fluorescence (510/532) (clone E9): 165
- Yellow Fluorescence (510/532) (clone F1): 159
- Yellow Fluorescence (510/532) (clone F6): 144
- Yellow Fluorescence (510/532) (clone F7): 161
- Yellow Fluorescence (510/532) (clone F9): 165
- Yellow Fluorescence (510/532) (clone F10): 116
- Yellow Fluorescence (510/532) (clone F11): 166
- Yellow Fluorescence (510/532) (clone G9): 170
- Yellow Fluorescence (510/532) (clone G10): 168
- Yellow Fluorescence (510/532) (clone H4): 156
- Yellow Fluorescence (510/532) (clone H5): 161
- Yellow Fluorescence (510/532) (clone H9): 168
- Yellow Fluorescence (510/532) (clone H10): 175

Substance: Split-YFP S1-10 (T203Y, D210V) (from UniProt P42212 1-214)
- Green Fluorescence (488/510) (clone E10): 21.4
- Ratio Yellow/Green Fluorescence (clone E10): 7.33
- Yellow Fluorescence (510/532) (clone E10): 157

Substance: Split-YFP S1-10 (T203Y, Q204E) (from UniProt P42212 1-214)
- Green Fluorescence (488/510) (clone C6): 5.1
- Ratio Yellow/Green Fluorescence (clone C6): 20
- Yellow Fluorescence (510/532) (clone C6): 102

Substance: Split-YFP S1-10 (T203Y, T205A) (from UniProt P42212 1-214)
- Green Fluorescence (488/510) (clone A3): 1.8
- Ratio Yellow/Green Fluorescence (clone A3): 42
- Yellow Fluorescence (510/532) (clone A3): 75.7

Other lines, results leading:

- Green Fluorescence (488/510) (clone F8): 20.2
- Ratio Yellow/Green Fluorescence (clone F8): 8.16
- Yellow Fluorescence (510/532) (clone F8): 165
Substance: Split-YFP S1-10 (T203Y, Q204H) (from UniProt P42212 1-214)

- Green Fluorescence (488/510) (clone B9): 14.7
- Ratio Yellow/Green Fluorescence (clone B9): 10.9
- Yellow Fluorescence (510/532) (clone B9): 160
Substance: Split-YFP S1-10 (Y200F, T203Y) (from UniProt P42212 1-214)

Reference: patent US20120282643A1
